In assay [1] the target is T1, Cynomolgus monkey PD-1 on transiently transfected 293F cells (cynomolgus monkey).
T1 construct: whole, on cells; also called cell surface cynomolgus PD-1; cyno PD-1
In words: FACS on cyno PD-1 transfected 293F cells, experiment 1. The protocol:
(§1) Cynomolgus monkey PD-1 (GenBank Accession No. NP_001271065.1) transient transfected 293F cells (2×10⁵ cells/well) were incubated with various concentrations of anti-PD-1 antibodies (3-fold serially diluted from 133.4 nM to 0.008 nM) at 4° C. for 1 hour. After washing with 1×PBS/1% BSA, the secondary antibody PE-labeled goat anti-human IgG was applied and incubated with cells at 4° C. for 1 hour. Anti-human PD-1 antibodies BMK1 and BMK3 were used as positive control. Human IgG4 isotype antibody was used as negative control. The cells were then washed and re-suspended in 1×PBS/1% BSA. MFI of the cells was measured by a flow cytometer and analyzed by FlowJo (version 7.6.1).

The target in assay [2] is T2, Cynomolgus PD-1 extracellular domain, hFc tag (cynomolgus, UniProt B0LAJ3 25-170).
T2 construct: Bought; also called cynoPro1.ECD.hFc; cyno PD-1 ECD protein
The experiment in a line: ELISA competition on coated cynoPro1.ECD.hFc; competitor cynoProL1.ECD.hFc.biotin 2.5 µg/mL; experiment 1. As to the method:
Plates were pre-coated with 1 μg/mL, 100 μL per well of cyno PD-1 ECD protein (cynoPro1.ECD.hFc) at 4° C. overnight. After 1-hour blocking using 200 μL of 1×PBS/2% BSA, constant concentration of biotinylated cyno PD-L1 (cynoProL1.ECD.hFc.biotin) (2.5 μg/mL) and various concentrations of testing antibody, positive and negative control (3-fold serially diluted from 133.4 nM to 0.007 nM) were pre-mixed and added to the plates. The plates were incubated at ambient temperature for 1 hour. The binding of ligand to the immobilized protein was detected by streptavidin-HRP. The color was developed by dispensing 100 μL of TMB substrate, and then stopped by 100 μL of 2M HCl. The absorbance was read at 450 nm and 540 nm using a microplate spectrophotometer.
On the technique in general: An ELISA detects its analyte on a solid surface through an enzyme-linked reagent.

A further assay concerns the target T3, Mouse PD-1 on 293F cells (mouse, UniProt Q02242 25-288).
T3 construct: whole, on cells; also called 293F.mPro1.B4; WBP305.293F.mPro1.B4
T3 sequence (looked up): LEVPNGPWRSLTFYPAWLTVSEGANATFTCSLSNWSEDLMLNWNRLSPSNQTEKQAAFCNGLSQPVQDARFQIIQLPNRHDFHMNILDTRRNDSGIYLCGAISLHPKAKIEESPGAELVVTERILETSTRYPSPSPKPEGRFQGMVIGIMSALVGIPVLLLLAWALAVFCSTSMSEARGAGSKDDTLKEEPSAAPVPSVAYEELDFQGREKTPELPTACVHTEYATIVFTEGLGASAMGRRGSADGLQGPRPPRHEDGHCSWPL
The experiment in a line: FACS on 293F.mPro1.B4 cells. The protocol: The cells 293F.mPro1.B4 (2×10⁵ cells/well) were incubated with various concentrations of anti-PD-1 antibodies (3-fold serially diluted from 133.3 nM to 0.008 nM) at 4° C. for 1 hour. After washing with 1×PBS/1% BSA, the secondary antibody PE-labeled goat anti-human IgG was applied and incubated with cells at 4° C. for 1 hour. Human IgG4 isotype antibody was used as negative control. The cells were then washed and re-suspended in 1×PBS/1% BSA. MFI of the cells was measured by a flow cytometer and analyzed by FlowJo (version 7.6.1).

The target of assay [3] is T4, Human PD-1 extracellular domain, mFc tag (human, UniProt Q15116 25-170).
T4 construct: extracellular domain; also called hPro1.ECD.mFc; hPD-1.ECD.mFc; not shown: mouse Fc tag at C-terminus
The experiment in a line: ELISA competition on coated hPro1.ECD.mFc; competitor hPro1L2.ECD.His; experiment 1. As to the method: Plates were pre-coated with 1 μg/mL, 100 μL per well of human PD-1 ECD (hPro1.ECD.mFc) at 4° C. overnight. After 1-hour blocking using 200 μL of 1×PBS/2% BSA, constant concentration of his tagged human PD-L2 ECD (hPro1L2.ECD.His) and various concentrations of testing antibodies (3-fold serially diluted from 66.7 nM to 0.003 nM) were pre-mixed and added to the plates. After 2-hour incubation at ambient temperature, the binding of the ligand to the immobilized protein was detected by HRP-labeled goat anti-His antibody. The color was developed by dispensing 100 μL of TMB substrate, and then stopped by 100 μL of 2N HCl. The absorbance was read at 450 nm and 540 nm using a microplate spectrophotometer.

The target of assay [4] is T1, Cynomolgus monkey PD-1 on transiently …. In words: FACS on cyno PD-1 transfected 293F cells, experiment 2. As to the method:
as §1

Assay [5] has as its target T5, Mouse PD-1 (soluble analyte in SPR, Table 11) (mouse, UniProt Q02242 25-167, limits assumed).
T5 sequence (looked up): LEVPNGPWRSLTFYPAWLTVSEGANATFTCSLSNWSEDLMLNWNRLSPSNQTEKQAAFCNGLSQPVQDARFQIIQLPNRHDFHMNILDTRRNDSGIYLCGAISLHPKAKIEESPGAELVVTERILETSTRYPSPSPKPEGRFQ
In words: SPR Biacore 8K; antibody captured on anti-human Fc chip, PD-1 injected; 1:1 fit. The protocol: (§2) Antibody binding affinity to human, mouse and cynomolgus PD-1 was detected using Biacore 8K. W3056-AP17R1-2H2-Z1-R1-14A1-FC (IgG4.SP) was captured on an anti-human Fc IgG antibody immobilized CM5 sensor chip (GE). Human, mouse and cynomolgus PD-1 at different concentrations were injected over the sensor chip at a flow rate of 30 uL/min for an association phase of 120 s, followed by 150 s dissociation. The chip was then regenerated by 10 mM Glycine pH 1.5 after each binding cycle.
(§3) The sensorgrams of blank surface and buffer channel were subtracted from the test sensorgrams. The experimental data was fitted by 1:1 model using Langmiur analysis. Molecular weight of 40, 45 and 40 kDa was used to calculate the molar concentration of analyte human, mouse and cynomolgus PD-1 respectively.
(In general: Surface plasmon resonance follows binding to a sensor surface in real time, without labels.)

In assay [6] the target is Human PD-1 (soluble analyte in SPR, Table 11) (human, UniProt Q15116 25-167). Described as above. The protocol:
as §2, §3

Assay [7] deals with T6, Cynomolgus PD-1 (soluble analyte in SPR, Table 11) (cynomolgus, UniProt B0LAJ3 25-170).
T6 construct: also called cyno PD-1
Described as above. As to the method: as §2, §3

T6 sequence (B0LAJ3 entry or part of it limits assumed): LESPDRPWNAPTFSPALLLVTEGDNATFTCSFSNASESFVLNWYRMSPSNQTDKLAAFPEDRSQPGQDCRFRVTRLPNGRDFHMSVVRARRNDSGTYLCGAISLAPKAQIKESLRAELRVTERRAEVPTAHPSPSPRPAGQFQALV
Human PD-1 (soluble analyte in SPR, Table 11), sequence (Q15116 25-167 limits assumed): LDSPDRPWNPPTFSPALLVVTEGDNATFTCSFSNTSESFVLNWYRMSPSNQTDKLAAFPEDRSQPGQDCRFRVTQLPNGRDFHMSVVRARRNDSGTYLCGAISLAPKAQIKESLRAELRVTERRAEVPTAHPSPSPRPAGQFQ
T2 sequence (B0LAJ3 entry or part of it limits assumed): as the sequence (B0LAJ3 entry or part of it limits assumed) above
T4 sequence (Q15116 25-170): as the sequence (B0LAJ3 entry or part of it limits assumed) above, with E2D, A10P, L19V, A35T, R75Q, A144T counted along it

B1: W3056-AP17R1-2H2-FC(IgG4.SP) (Fc fusion)
chain: QVQLVESGGGLVQPGGSLRLSCAASDSIDSLVNMGWYRQAPGKQRELVALIANYITHYADFVKGRFTISRDAAKNTVNLQMSSLKPEDTAVYYCYARNIIVDYWGQGTQVTVSS
notes: VHH fused to Fc of human IgG4 S228P; also called W3056 lead parental antibody (VHH-Fc(hIgG4) fusion); not shown: Fc of human IgG4 (hIgG4.S228P)
As to B1, the EC50 in assay [1] came out at 0.98 nM; with Mouse PD-1 on 293F cells, 4.77 nM. Moreover, the IC50 in assay [2] is 1.3 nM; in assay [3], 2.02 nM.

B2: W3056-AP17R1-2H2-Z1-R1-14A1-FC(IgG4.SP) (Fc fusion)
chain: QVQLVESGGGVVQPGGSLRLSCAASDSIDSLVNMGWYRQAPGKQRELVALIATYITHYADFVKGRFTISRDNSKNTLYLQMNSLRAEDTAVYYCYARNIIVDYWGQGTLVTVSS
notes: also called W3056 lead antibody (VHH-Fc(hIgG4) fusion); not shown: Fc of human IgG4 (hIgG4.S228P)
With B2, the EC50 with Mouse PD-1 on 293F cells came out at 4.26 nM; in assay [4], 1.98 nM. Further, the values for the Kd in assay [5], in assay [6] and in assay [7] were 28.7 nM, 3.45 nM and 8.53 nM, respectively. For the same molecule, the koff in assay [5] came to 0.00422 s⁻¹; in assay [6], 0.000857 s⁻¹; in assay [7], 0.00177 s⁻¹. The on-rate (kon) in assay [5] is 147000 M⁻¹ s⁻¹; in assay [6], 248000 M⁻¹ s⁻¹; in assay [7], 208000 M⁻¹ s⁻¹.

What is called EC50 is the concentration that produces a half-maximal response. As a reminder, the IC50 is the concentration that gives 50% inhibition. The Kd is the equilibrium constant for the complex coming apart. A word on the koff: it is the rate constant with which the complex falls apart. One may read the kon as a measure of how fast the partners come together.

(Values after patent US20240301067A1 (WUXI BIOLOGICS IRELAND, published 2024).)
